# Measurements taken from the supplement of paper PMC10567573.
# ± gives the standard deviation.
# Experiment: protein stability index of a GFP-peptide fusion (GPS, HEK-293T) (PSI 1-6); higher = more stable
# Conditions: c terminus: a fixed tail appended
# 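Also: 24-mer peptide tiles fused after GFP, lentivirally expressed, FACS-sorted into six equal bins by GFP/DsRed ratio, decoded by Illumina sequencing, PSI is the read-weighted mean bin number.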
Sequence,protein stability index (treatment: DMSO),"protein stability index (treatment: MLN4924 1 uM, 8 h)"
AAAAAAPAPPPPAGGATAWGDLLG [SNAP91],4.37 ± 0.17,4.42 ± 0.081
AAFYKGYVPNMLGIIPYAGIDLAV [SLC25A25],2.78 ± 0.45,3.31 ± 0.57
AAHAAQAHRERNEFPEDPEFEAVV [PI4K2A],5.29 ± 0.66,5.3 ± 0.28
AALAVNTSILSRLPPEALTAPSGG [RNF208],3.44 ± 0.24,3.45 ± 0.14
AALDACSGNDPFAPSEGSAEAAPE [SNAP91],5.43 ± 0.25,5.46 ± 0.3
AALHGLEETKKLANKYLVEDVLLL [KLHL14],2.42 ± 0.22,2.55 ± 0.56
AAPGVDLTRVLAEMREQYEAMAEK [KRT15],4.57 ± 0.32,4.35 ± 0.086
AAPRTLAAHPPLPLLPPAMGTEPA [TBX6],4.61 ± 0.43,4.57 ± 0.29
AAQMMDIWVPIKIGALTYFAQADA [ACSBG2],2.28 ± 0.69,2.85 ± 0.49
AARSGDAAANKLFHYIPGTDILDL [PLEKHN1],3.51 ± 0.39,3.35 ± 0.14
ACTLTVFPPEETTPSPSRESPLSA [KLHL13],4.35 ± 0.32,4.45 ± 0.15
ADTEEPTKDPDVAFHGLSLGLSLT [PSD2],4.37 ± 0.25,4.44 ± 0.27
AEKDRRLKKKHQLLEDARRKGMPF [PPFIA4],4.05 ± 0.29,4.29 ± 0.16
AELAETIVYARVLALHPEAPGLYN [CCDC3],1.99 ± 0.077,2.55 ± 0.2
AELLLAARLLGALAARSGAAYGPG [TSPAN10],2.93 ± 0.069,2.77 ± 0.73
AEMFRRKPLFCGNSEADQLGKIFD [CDK4],2.98 ± 0.17,3.06 ± 0.2
AEMNRGSNEWKTVVGGAMFFIGFT [COX4I1],2.95 ± 0.91,3.18 ± 0.44
AERLTATGILLHPWLRQDPMPLAP [TRIB3],2.78 ± 0.22,2.91 ± 0.18
AETDEHTGANTKKPEDTAEDLTAK [FAM9B],5.74 ± 0.23,5.62 ± 0.12
AGEPGHSPADYLRFQDLVLRMLEY [DYRK1B],2.27 ± 0.38,2.33 ± 0.22
AGGHPAQLGLGRGASTFKEEPQTV [JUNB],4.511 ± 0.035,4.58 ± 0.32
AGIALYSHEDVCVFKCSVSRETEC [CARM1],3 ± 0.3,2.7 ± 0.4

Sequence,protein stability index (treatment: DMSO),"protein stability index (treatment: MLN4924 1 uM, 8 h)"
AGPAGTGTPSLLRGKRGGHATNYR [EMID1],4.72 ± 0.49,4.59 ± 0.22
AGPYLLNGSYLELSSDRVANSSSE [ADAMTSL2],4.09 ± 0.27,4.07 ± 0.17
AHVNTLHSGTKRDPKEDVFQQNHL [PHTF1],4.31 ± 0.15,4.28 ± 0.18
AIHVLGPIDFEESRFYEIHARARD [PCDHGC5],2.64 ± 0.45,3.01 ± 0.095
AILVMHHSMKPHPAITATLLDFMC [INTS3],2.91 ± 0.36,2.98 ± 0.47
AISDQLLGAGSDLKDFTLNETVNS [ADAMTSL2],4.32 ± 0.21,4.8 ± 0.42
AKAAALSTKTPAPCSEFMEPSSDP [SPAG8],5.1 ± 0.33,5.41 ± 0.19
AKGGFSGCSAVLSGGSSSSFRAGS [KRT71],3.17 ± 0.13,3.17 ± 0.24
AKTIDTSPPVDLFATASAAVPVST [SNAP91],4.37 ± 0.1,4.32 ± 0.13
ALVCLLSCLLPSSEAKLYGRCELA [SPACA3],3.18 ± 0.42,3.04 ± 0.36
ANTTPSGKSVSSSSSVETGPSVSE [SPATS1],5.32 ± 0.23,5.31 ± 0.23
APAAPMVSKGAESSRSSEESSSDS [BRD3],5.59 ± 0.19,5.63 ± 0.18
APPPRDYTYRDYGHSSSRDDYPSR [RBMX],4.43 ± 0.21,4.32 ± 0.078
APRLAVAVPAVTSADSQFSQTTQA [LYSMD4],4.76 ± 0.16,4.81 ± 0.19
APVPEPPKEEQQQALEQFAAAAAH [EPB41L3],5.54 ± 0.21,5.56 ± 0.17
AQMSTLHVSPPPSADPARGLPRSR [PDLIM4],4.79 ± 0.2,4.86 ± 0.13
ARELAITDSEHSDAEVSCTDNGTF [RETREG3],5.56 ± 0.28,5.592 ± 0.033
ARLTGVNDKMAEYTNSAGVPSLNA [GOSR1],3.83 ± 0.22,4.01 ± 0.16
ARQAACCVARPGTPSLLRFALASL [ZSWIM9],2.33 ± 0.17,2.43 ± 0.32
ASFDRRGEYIYTGNAKGKILVLKT [RBBP5],2.02 ± 0.19,2.29 ± 0.32
ASGQSYSSREVFTSSSSSSSRQTR [KRT16],4.84 ± 0.15,4.8 ± 0.21
ASSGQHHDFLSDLFSDDYGGKNCK [CEBPB],4.54 ± 0.35,4.66 ± 0.45

Sequence,protein stability index (treatment: DMSO),"protein stability index (treatment: MLN4924 1 uM, 8 h)"
ATAFSKLKPESSQQPGQDALAVKA [ZBED1],4.8 ± 0.5,5.21 ± 0.12
ATAVGGGFFLLQLANHTGYIKVDW [FUNDC2],3.27 ± 0.8,3.08 ± 0.47
ATIENAQPILQIDNARLAADDFRT [KRT16],4.41 ± 0.17,4.52 ± 0.16
AVAAATAAVEGSGGSGGGSHHHHQ [KCNA4],5.04 ± 0.33,5.07 ± 0.35
AWDNPAYSGPPSPHGTLRVCTISS [PKD2L1],2.93 ± 0.31,3.05 ± 0.37
AWMLCKLLDKAGVPPGVVNIVFGT [ALDH8A1],2.642 ± 0.019,2.77 ± 0.51
AYLVTVRGNLSILAAVLVEPKLHT [OR3A1],3.21 ± 0.75,2.71 ± 0.68
AYVAMIPQCIKEEDTPSDNDSGIC [ATF4],4.25 ± 0.41,4.46 ± 0.26
CAPYDSRLLGSARPELGAALGIYG [IRX6],2.56 ± 0.37,2.13 ± 0.55
CCCCYQSKSLMTSVPMNGTSIQWK [EDNRA],2.2 ± 0.26,2.39 ± 0.31
CEPPSYRPMHHEDFKEDLKKFRTK [CDC25A],4.89 ± 0.31,4.93 ± 0.28
CGKAFYKKYRLTEHERAHRGEKPH [ZNF649],3.03 ± 0.33,3.18 ± 0.18
CHGMSSQLVRYSADGLLQLGPLGS [GALNT9],2.32 ± 0.3,2.12 ± 0.21
CILLSALGYLLLGAATNVFLFVLA [MFSD9],2.53 ± 0.45,2.77 ± 0.27
CLDPIIYFFLCQPFREILCKKLHI [P2RY14],2.74 ± 0.2,3.252 ± 0.02
CLLTYGMTSSSAYYYTKVMSELFL [PKD2L1],3.23 ± 0.41,2.83 ± 0.73
CNPLRYSVLMGHGVCMGLVAAACA [OR10K2],3.37 ± 0.59,2.83 ± 0.3
CPATWGPSVEQAADSLDFDETFLA [FOXJ1],4.56 ± 0.15,4.61 ± 0.064
CQYLMATFVNVYIASFIRGPNPSK [CDS2],3.67 ± 0.3,3.4 ± 0.45
CRAPPPEARGIRAPPLPDSPQPLA [FCHO1],4.2 ± 0.6,4.3 ± 0.22
CRELGYVEAKSWTASSSYGKGEGP [LOXL2],3.44 ± 0.41,3.45 ± 0.37
